Measurements as given in patent publication US8492099B2, “Method of measuring enzymatic activity of adsorbed allergenic enzyme” (Alk-Abello A/S, priority 2005, dated 2013).

Key:
[1] = target: T1, papain (Carica papaya, UniProt P00784); conditions: 12.5 nM E-64, papain 5 nM
T1 sequence (P00784 134-345): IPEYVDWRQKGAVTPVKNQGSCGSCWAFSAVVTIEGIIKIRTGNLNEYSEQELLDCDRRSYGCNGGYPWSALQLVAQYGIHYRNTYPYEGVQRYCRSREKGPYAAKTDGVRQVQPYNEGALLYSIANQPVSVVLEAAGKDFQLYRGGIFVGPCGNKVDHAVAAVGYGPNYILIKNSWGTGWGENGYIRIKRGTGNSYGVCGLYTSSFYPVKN
Experimental: Stock solutions of 1M DTT and 100 mM EDTA were made in the beginning of the experimental period, frozen at −20° C., and used through the entire project period. Each day a new buffer was made containing the reducing agent DTT and EDTA from the stock solutions. […] DTT is continuously oxidized by the oxygen in the air and therefore a new buffer must be made each day. […] The microtiter plate was opaque to avoid cross contamination of emitted fluorescence between wells. The substrate was diluted to the final concentration in the newly made buffer containing DTT and EDTA and transferred to the microtiter plate. The enzyme was diluted in the same buffer and incubated 10 min in the case of papain and 20 min in the case of Der p 1, for their activation. Mixing, transferring and incubation were carried out at room temperature. After incubation the enzyme solution was transferred to the microtiter plate and the measurements were initiated. The measurements were carried out for 10 min with a total of 36 measurements for each well and automatic mixture between each measurement.
EDTA was added at 1 mM, and DTT at 5 mM final concentrations.

[2] = Quenching of AMC fluorescence by aluminium hydroxide; format: physicochemical; conditions: 1 μM AMC, during the time of the assay
Description: This AMC concentration is equivalent to the enzymatic assay AMC concentration generated by papain and Der p 1.

[3] = Adsorption of Der p 1 to aluminium hydroxide: protein concentration by rocket immune electrophoresis (RIE); format: physicochemical
Description: This method was used to quantify a given protein by measuring the propagation of protein-antibody complex after electrophoresis in an agarose gel containing antibodies directed against the protein under investigation.
This method is based on the mobility of protein-antibody complex in an agarose gel during electrophoresis. The antibodies are incorporated into the agarose gel during polymerization and the sample protein is then applied to the wells. The proteins move according to their electrophoretic mobility encountering the antibodies in the gel and forming complexes. These complexes grow in size as the antigen encounters more and more antibodies thereby limiting the migration through the pores of the gel until no further migration occurs. The complexes are visualized by staining the gel. The area delimited by the complexes is proportional to the amount of protein applied to the well. The quantification is performed relative to an internal standard preparation applied in a dilution series on the same gel.
A glass plate was placed on a leveled surface and cleaned with ethanol. 11 mL agarose was pipetted into a test tube in a 56° C. water bath, 15 μL antibody was added, and the solution was mixed gently by inversion. The agarose was poured onto the glass plate carefully avoiding formation of air bubbles. After gelation a series of wells were punched 1.5 cm from the lower edge of the plate. The plate was placed on the cooled surface of the electrophoresis apparatus. Connecting bridges of 5 layers of filter paper were established and the voltage across the gel adjusted to 2V/cm. 10 μL of sample was applied to the wells. […]
(§1) After adsorption 500 μL was taken out for further analysis and the rest of the mixture was centrifuged for 10 min at 4000 rpm. […] Con1 was analyzed in the beginning of the experiment and Con2 was analyzed at the end of the 2 hours experiment.
Another method applied to quantify protein content was RIE. The samples Con1, Con2, Sup, and Elu were evaluated together with three Der p 1 standards (125 ng, 250 ng, and 500 ng). […]

[4] = Adsorption of Der p 1 to aluminium hydroxide: protein concentration by A280; format: physicochemical
Description: The aromatic amino acids tryptophan, tyrosine and phenylalanine absorb ultraviolet light. However only tryptophan and tyrosine absorb at 280 nm and tryptophan absorbs 5 times more light than tyrosine. This is due to the […] transition in the indole ring of tryptophan where phenylalanine and tyrosine contains a phenyl group. The absorbance of a protein is linearly correlated with the amount of tryptophan and tyrosine in the protein, the length of the light path and the concentration of protein. This relationship is named Lambert-Beer's law and is given by: A=ε·l·c where A is the absorbance, ε is the molar absorption coefficient for the protein (determined by the amount of tryptophan and tyrosine in the protein) l is the length of the light path and c is the protein concentration. Thus from an absorbance measurement the concentration of protein can be estimated if the molar absorptivity coefficient is known. • Apparatuses • Lambda 800 UV/VIS Spectrometer, PerkinElmer™ • 100-QS, quartz cuvette, path length 1 cm, Hellma® • Materials and Reagents • 50 mM Bis-Tris pH 6.5, Sigma • 50 mM Tris pH 7.0, Sigma • 50 mM phosphate buffer pH 7.0, Merck • 2% Helmanex solution, Hellma Experimental Procedure
The spectrophotometer was turned on 30 min prior to use for a warm up period. The wavelength of the spectrophotometer was set to 280 nm and the instrument was zeroed to a blank sample containing the matrix of the true sample. The quartz cuvette was washed first with a 2% Helmanex solution and then 4 times with MQ water and afterwards dried with high pressure air. […] After cleaning the cuvette 20 μL of sample was transferred to the cuvette and the absorbance was measured.
as §1
The absorbance measurements were converted to protein concentration by the Lambert-Beer's law using a molar absorption coefficient for Der p 1 of […] as shown in table 8a. […]

[5] = test system: IgE from sera of HDM allergic patients; test: IgE inhibition assay (ADVIA centaur); format: binding, human
Experimental: This assay evaluates the capacity that an allergen has to bind IgE from sera of patients allergic to that allergen source.
IgE inhibition experiments were performed on an ADVIA centaur instrument. Serial dilutions (performed with the TECAN (P-05-07F294)) of the inhibitor (Antigen in solution or antigen gel adjuvant vaccine) were mixed with a fixed amount of biotinylated antigen and further incubated with a solid phase absorbed IgE. The amount of biotinylated allergen bound to the solid phase was estimated as the light emitted after incubation with streptavidin labelled with acridinium ester. The raw data was processed in Excel and transferred to GraphPad Prism v. 4.0 for the final analysis (curve fitting, plotting and statistical comparisons). The data was fitted to a four parameter logistic function:
After the adsorption the solution was centrifuged for 5 minutes at 13,000 rpm. […] A Der p extract sample was prepared for incubation with pooled sera IgE.

[6] = Der p 1 enzyme activity fluorescence assay (activity measurements and Michaelis-Menten kinetic), Der p 1/aluminium hydroxide adsorption experiment; format: biochemical
Experimental: After measuring the enzymatic activity the maximal slope of the progress curve was estimated using the software SoftMax® PRO Life Sciences Edition, Molecular Devices, 2001. After estimating the initial velocity of the experiments they were transferred to Prism and analyzed.
After adsorption 500 μL was taken out for further analysis and the rest of the mixture was centrifuged for 10 min at 4000 rpm. An elution step was performed for 1 h at 4° C. where the pellet of Mix2 was resuspended in phosphate buffer. […] Con1 was analyzed in the beginning of the experiment and Con2 was analyzed at the end of the 2 hours experiment.
Different types of enzymatic assays were performed: (i) activity measurements using a fixed substrate concentration to evaluate enzyme activity, and (ii) Michaelis-Menten kinetic to estimate the kinetic parameters Vmax and KM.
All activity assays were conducted with Tris buffer, pH 7.0, 5 mM DTT, 1 mM EDTA and Boc-QAR-AMC as substrate.

[7] = Adsorbed: Der p 1 adsorbed to aluminium hydroxide (mix 2)
[8] = Control: Der p 1 in the absence of aluminium hydroxide
[9] = Eluted: Der p 1 eluted from aluminium hydroxide with phosphate buffer

CC(C)C[C@H](NC(=O)[C@H]1O[C@@H]1C(=O)O)C(=O)NCCCCN=C(N)N (relative stereo) [E-64, L-trans-epoxysuccinyl-L-leucylamido (4-guanidino) butane]
Inhibition of papain enzyme activity [1]: does not completely inhibit

Cc1cc(=O)oc2cc(N)ccc12 [AMC]
Quenching of fluorescence by aluminium hydroxide [2]: no quenching occurred

B1: Der p 1: major house dust mite allergen, family C1 cysteine protease, purified from D. pteronyssinus extract (protein, UniProt P08176 99-320, looked up)
Peptidase 1: TNACSINGNAPAEIDLRQMRTVTPIRMQGGCGSCWAFSGVAATESAYLAYRNQSLDLAEQELVDCASQHGCHGDTIPRGIEYIQHNGVVQESYYRYVAREQSCRRPNAQRFGISNYCQIYPPNVNKIREALAQTHSAIAVIIGIKDLDAFRHYDGRTIIQRDNGYQPNYHAVNIVGYSNAQGVDYWIVRNSWDTNWGDNGYGYFAANIDLMMIEEYPYVVIL
Adsorbed protein eluted from aluminium hydroxide using phosphate buffer [3]: 98% | Adsorption degree [3]: approximately 56% | Protein content in Con1 found in Sup [3]: 44% | Adsorbed protein eluted from aluminium hydroxide using phosphate buffer [4]: 56% | Protein content in Con1 found in Sup [4]: 32% | Adsorption degree ([4]; 100 μg/mL Der p 1, 1.14 mg/mL aluminium hydroxide, 1 h at 4° C.): approximately 70% | Inhibition of IgE binding, bottom levels of Con1 and Elu ([5]; Der p 1 without aluminium hydroxide (Con1) vs eluted from aluminium hydroxide (Elu)): complete inhibition is possible | Hill slopes of Con1 and Elu ([5]; one sample t-test p=0.83): not significantly different | Vmax in Mix2 relative to Vmax in Mix1 [6]: 62% | Vmax in Sup relative to Vmax in Mix1 [6]: 30% | Km [6, 7]: 56 µM | Vmax [6, 7]: 0.15 ng/mL · s | kcat (Vmax/protein concentration, A280) [6, 7]: 0.022 s⁻¹ | kcat (Vmax/protein concentration, RIE) [6, 7]: 0.019 s⁻¹ | Vmax [6, 8]: 0.25 ng/mL · s | kcat (Vmax/protein concentration, A280) [6, 8]: 0.024 s⁻¹ | kcat (Vmax/protein concentration, RIE) [6, 8]: 0.018 s⁻¹ | Km ([6]; Control: Der p 1 in the absence of aluminium hydroxide, Boc-QAR-AMC, pH 7.0): 47 µM | Km [6, 9]: 51 µM | Vmax [6, 9]: 0.11 ng/mL · s | kcat (Vmax/protein concentration, A280) [6, 9]: 0.025 s⁻¹ | kcat (Vmax/protein concentration, RIE) [6, 9]: 0.014 s⁻¹ | Difference between Vmax of Con1 and Mix1 ([6]; Newman Keuls multiple comparison test p>0.05): no significant difference | Activity in Mix2 found in Elu ([6]; Vmax): 68% | Activity of Der p 1 adsorbed to aluminium hydroxide ([6]; activity measurements): 66% | Adsorbed activity desorbed after elution from Mix2 with phosphate buffer ([6]; activity measurements): 67% | Activity of non adsorbed Der p 1 in Sup relative to activity in Mix1 ([6]; activity measurements, 100 μM Boc-QAR-AMC): 33% | Part of the Der p 1 molecules adsorbed to the aluminium hydroxide ([6]; conclusion): 60-70% | Vmax of Con2 lower than Vmax in Con1 ([6]; end vs beginning of 2 hours experiment, absence of aluminium hydroxide, t-test p-value=0.0024): 14% | Difference between KM means of the samples ([6]; one-way ANOVA p-value=0.62): no significant difference | Difference in activity between Con1, Con2 and Mix1 ([6]; one-way ANOVA p-value=0.76, 2 hours experiment): no significant difference
